Measurements from article PMC8345109, “Optimization of New Catalytic Topoisomerase II Inhibitors as an Anti-Cancer Therapy” (Cancers, 2021).

How the values were obtained:
TOP2A(431-1193) = TOP2A(431-1193) (Homo sapiens, UniProt P11388 431-1193); assay: EMSA; merbarone; FP: 20 mM HEPES-NaOH pH 7.4, 2 mM DTT, 3 mM MgCl2, 0.05% NP-40, protease inhibitors, room temperature 20 min; EMSA buffer not in material; details: protein: recombinant; tags: N-terminal 6xHis (pET28a); label: IRDye700 (printed IRDay700); blunt; self-complementary 20-mer, 2 copies
TOP2B full-length = TOP2B full-length (Homo sapiens, UniProt Q02880 1-1626); assay: EMSA; 200 uM ICRF193; FP: 20 mM HEPES-NaOH pH 7.4, 2 mM DTT, 3 mM MgCl2, 0.05% NP-40, protease inhibitors, room temperature 20 min; EMSA buffer not in material; details: protein: recombinant; label: IRDye700 (printed IRDay700); blunt; self-complementary 20-mer, 2 copies
TOP2A full-length = TOP2A full-length (Homo sapiens, UniProt P11388 1-1531); assay: as above; details: protein: recombinant; label: IRDye700 (printed IRDay700); blunt; self-complementary 20-mer, 2 copies

Measured: binding result

Chain of TOP2A(431-1193) (P11388 431-1193): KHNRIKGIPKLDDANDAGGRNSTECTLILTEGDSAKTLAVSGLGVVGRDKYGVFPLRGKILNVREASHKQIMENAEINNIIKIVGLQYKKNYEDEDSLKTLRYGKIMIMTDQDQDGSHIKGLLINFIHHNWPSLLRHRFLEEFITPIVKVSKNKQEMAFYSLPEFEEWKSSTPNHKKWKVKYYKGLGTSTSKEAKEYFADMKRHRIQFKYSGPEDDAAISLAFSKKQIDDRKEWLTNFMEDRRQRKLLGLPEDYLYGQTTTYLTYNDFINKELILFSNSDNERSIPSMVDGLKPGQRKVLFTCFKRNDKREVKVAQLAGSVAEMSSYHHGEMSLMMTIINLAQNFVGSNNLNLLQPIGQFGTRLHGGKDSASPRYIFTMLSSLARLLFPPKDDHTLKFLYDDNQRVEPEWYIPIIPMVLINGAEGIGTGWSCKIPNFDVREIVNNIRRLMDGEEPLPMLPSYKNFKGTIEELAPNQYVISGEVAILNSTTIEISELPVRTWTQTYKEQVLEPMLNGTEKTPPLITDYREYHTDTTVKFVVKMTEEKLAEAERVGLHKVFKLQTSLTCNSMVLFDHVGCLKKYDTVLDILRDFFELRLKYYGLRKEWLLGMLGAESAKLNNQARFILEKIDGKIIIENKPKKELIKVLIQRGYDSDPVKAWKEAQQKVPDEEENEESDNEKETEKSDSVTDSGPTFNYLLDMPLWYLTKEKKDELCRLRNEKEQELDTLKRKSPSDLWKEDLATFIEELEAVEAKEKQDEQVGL
Chain of TOP2B full-length (Q02880 whole entry): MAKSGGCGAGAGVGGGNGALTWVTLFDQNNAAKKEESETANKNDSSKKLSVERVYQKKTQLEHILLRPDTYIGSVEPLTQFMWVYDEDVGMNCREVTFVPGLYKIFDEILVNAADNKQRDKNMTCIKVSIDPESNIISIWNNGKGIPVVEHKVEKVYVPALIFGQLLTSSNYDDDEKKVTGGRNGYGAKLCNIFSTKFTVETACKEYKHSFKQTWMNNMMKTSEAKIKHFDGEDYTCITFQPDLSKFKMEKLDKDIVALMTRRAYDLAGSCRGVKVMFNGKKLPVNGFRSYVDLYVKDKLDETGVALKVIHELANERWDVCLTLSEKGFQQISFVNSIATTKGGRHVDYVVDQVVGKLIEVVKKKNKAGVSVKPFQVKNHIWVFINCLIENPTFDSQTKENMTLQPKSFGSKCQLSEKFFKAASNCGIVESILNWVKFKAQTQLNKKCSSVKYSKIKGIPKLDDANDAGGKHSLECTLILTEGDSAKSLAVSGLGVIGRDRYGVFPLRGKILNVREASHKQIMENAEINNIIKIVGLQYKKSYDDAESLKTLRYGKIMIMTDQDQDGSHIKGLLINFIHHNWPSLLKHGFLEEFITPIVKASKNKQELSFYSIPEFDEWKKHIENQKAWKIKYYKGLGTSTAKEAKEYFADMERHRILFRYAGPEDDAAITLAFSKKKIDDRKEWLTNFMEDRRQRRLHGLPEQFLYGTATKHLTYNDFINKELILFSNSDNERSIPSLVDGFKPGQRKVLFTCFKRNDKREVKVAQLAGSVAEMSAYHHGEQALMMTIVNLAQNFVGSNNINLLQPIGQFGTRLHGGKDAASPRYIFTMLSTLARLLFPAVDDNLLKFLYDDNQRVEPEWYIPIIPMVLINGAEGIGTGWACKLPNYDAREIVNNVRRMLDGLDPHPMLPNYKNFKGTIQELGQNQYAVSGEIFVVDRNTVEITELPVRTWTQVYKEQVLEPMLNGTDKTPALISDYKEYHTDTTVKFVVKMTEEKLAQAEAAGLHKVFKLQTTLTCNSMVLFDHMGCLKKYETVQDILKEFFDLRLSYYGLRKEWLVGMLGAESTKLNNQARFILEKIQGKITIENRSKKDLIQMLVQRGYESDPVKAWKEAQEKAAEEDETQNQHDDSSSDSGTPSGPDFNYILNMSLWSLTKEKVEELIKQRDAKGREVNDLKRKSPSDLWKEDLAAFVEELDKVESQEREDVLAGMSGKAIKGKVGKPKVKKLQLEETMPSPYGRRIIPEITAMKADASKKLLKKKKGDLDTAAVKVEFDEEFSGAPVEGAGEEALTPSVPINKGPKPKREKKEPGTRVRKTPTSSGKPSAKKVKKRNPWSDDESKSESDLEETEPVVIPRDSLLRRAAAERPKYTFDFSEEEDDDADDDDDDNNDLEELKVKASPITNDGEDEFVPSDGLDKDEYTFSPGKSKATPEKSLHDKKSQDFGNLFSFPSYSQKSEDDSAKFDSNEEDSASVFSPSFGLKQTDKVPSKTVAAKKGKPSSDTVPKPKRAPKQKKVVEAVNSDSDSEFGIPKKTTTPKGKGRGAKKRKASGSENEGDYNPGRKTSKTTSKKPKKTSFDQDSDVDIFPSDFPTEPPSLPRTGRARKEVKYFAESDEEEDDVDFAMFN
Chain of TOP2A full-length (P11388 whole entry): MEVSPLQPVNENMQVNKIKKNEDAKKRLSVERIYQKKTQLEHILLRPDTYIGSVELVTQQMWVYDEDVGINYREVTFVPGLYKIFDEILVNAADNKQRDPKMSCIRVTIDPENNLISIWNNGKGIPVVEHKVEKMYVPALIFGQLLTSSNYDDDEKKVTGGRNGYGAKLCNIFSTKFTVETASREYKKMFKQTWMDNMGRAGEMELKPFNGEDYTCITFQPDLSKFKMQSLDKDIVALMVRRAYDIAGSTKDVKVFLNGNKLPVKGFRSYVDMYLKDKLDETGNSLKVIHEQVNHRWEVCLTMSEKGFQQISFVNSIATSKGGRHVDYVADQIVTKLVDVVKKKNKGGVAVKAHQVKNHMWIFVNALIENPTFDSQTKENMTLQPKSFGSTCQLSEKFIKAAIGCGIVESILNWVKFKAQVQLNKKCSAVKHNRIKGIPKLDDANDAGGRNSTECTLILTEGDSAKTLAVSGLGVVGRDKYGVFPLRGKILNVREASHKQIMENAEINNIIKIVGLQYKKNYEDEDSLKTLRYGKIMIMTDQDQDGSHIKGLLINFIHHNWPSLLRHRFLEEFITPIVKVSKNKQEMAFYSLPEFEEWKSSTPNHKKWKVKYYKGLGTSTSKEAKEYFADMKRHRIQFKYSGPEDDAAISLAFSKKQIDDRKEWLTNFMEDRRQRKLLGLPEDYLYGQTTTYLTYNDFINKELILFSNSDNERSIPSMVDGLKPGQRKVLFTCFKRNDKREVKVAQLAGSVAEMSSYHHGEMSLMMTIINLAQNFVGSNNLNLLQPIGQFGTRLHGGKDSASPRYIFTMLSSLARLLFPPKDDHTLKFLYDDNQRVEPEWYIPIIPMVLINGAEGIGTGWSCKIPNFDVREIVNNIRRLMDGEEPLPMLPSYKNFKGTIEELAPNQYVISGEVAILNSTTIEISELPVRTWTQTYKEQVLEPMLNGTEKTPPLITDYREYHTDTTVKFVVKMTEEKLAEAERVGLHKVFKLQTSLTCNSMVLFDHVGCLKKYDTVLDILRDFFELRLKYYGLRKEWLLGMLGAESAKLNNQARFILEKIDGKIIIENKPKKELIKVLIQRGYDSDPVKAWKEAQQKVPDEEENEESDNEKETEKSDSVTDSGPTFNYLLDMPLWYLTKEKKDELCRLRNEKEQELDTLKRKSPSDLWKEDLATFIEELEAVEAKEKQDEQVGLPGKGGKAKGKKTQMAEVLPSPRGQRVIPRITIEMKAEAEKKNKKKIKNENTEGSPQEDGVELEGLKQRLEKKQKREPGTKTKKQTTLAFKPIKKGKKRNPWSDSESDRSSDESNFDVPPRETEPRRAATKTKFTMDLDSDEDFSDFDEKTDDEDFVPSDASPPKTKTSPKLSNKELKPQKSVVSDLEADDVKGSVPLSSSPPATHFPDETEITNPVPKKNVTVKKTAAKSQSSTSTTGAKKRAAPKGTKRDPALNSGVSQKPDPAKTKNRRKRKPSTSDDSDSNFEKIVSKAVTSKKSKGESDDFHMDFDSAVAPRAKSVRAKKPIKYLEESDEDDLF

B1: 5ZRF DNA oligo (IRDye700) (dsDNA)
DNA 1: AGCCGAGCTGCAGCTCGGCT
DNA 2: AGCCGAGCTGCAGCTCGGCT
binds: TOP2A(431-1193) | TOP2B full-length | TOP2A full-length
